Experimental data taken from article PMC8565845.

How the values were obtained:
[1] = molecular target: HBV core protein mutant Cp-Y132A (assembly-incompetent) homodimer (hepatitis B virus (HBV)) (UniProt P03147); assay: optical tweezers force spectroscopy
[2] = molecular target: HBV core protein mutant Cp-Y132A (assembly-incompetent) homodimer (hepatitis B virus (HBV)) (UniProt P03147); assay: HAP-Alexa488 staining with photobleaching step counting

With “HBV core protein mutant Cp-Y132A (assembly-incompetent) homodimer (from UniProt P03147 1-149) (natural protein)” the ω (unitless association constant for two nucleic acid-bound ligands) [1] was 500 and the stoichiometry N [2] was 2 Cp dimers.
